Laboratory results published in IntAct's records for PubMed 22212508.

What was measured:
hdgr2_mouse Hdgfl2 = hdgr2_mouse Hdgfl2 (UniProt Q3UMU9)

Measured: effect of a mutation on the interaction

Hepatoma-derived growth factor (Mus musculus), P51859 S165A, sequence (P51859 whole entry S165A): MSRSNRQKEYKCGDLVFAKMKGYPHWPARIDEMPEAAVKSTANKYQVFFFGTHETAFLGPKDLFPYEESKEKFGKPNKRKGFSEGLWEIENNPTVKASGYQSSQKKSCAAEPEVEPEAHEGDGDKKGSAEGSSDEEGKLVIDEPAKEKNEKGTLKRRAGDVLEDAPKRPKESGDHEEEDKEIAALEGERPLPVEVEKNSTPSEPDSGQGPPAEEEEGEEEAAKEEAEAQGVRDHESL
hdgr2_mouse Hdgfl2, sequence (Q3UMU9 whole entry): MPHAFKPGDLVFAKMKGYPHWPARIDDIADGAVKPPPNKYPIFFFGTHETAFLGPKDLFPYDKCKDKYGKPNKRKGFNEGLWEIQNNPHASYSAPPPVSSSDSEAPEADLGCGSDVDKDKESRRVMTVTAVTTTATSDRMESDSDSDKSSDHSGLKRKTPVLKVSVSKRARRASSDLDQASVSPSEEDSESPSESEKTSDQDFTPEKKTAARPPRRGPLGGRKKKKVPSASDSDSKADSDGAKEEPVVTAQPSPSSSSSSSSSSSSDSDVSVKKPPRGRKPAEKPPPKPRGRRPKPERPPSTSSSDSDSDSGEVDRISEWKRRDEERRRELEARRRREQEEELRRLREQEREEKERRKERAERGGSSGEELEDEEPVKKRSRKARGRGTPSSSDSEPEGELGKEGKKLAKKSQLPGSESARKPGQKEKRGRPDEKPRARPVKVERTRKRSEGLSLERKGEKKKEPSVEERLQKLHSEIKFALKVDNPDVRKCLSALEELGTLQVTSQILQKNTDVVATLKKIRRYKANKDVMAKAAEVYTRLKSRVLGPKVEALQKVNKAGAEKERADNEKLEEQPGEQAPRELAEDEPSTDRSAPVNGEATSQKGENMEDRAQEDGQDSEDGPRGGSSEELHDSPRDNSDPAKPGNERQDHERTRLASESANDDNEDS
q3umu9-1, Q3UMU9-1, sequence (Q3UMU9 whole entry): as above
q3umu9-3, Q3UMU9-3, sequence (Q3UMU9 other isoform, or with tags, fused parts or gaps): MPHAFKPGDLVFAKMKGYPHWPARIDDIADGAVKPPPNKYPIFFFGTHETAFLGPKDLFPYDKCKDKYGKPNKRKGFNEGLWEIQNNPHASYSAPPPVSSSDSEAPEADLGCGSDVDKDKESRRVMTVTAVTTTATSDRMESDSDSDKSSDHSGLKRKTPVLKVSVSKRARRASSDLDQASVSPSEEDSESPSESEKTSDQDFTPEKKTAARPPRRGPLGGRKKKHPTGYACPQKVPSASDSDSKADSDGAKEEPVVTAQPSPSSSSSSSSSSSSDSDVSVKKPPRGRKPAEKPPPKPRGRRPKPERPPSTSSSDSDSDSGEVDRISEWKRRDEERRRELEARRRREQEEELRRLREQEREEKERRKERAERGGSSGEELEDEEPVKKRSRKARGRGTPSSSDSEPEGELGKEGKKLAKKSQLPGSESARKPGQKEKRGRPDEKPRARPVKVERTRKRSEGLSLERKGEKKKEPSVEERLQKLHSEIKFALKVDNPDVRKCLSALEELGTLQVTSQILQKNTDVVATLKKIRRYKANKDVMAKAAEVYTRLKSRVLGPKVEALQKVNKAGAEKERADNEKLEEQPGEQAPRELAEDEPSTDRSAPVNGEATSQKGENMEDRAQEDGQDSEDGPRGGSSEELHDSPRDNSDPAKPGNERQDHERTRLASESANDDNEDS

Hepatoma-derived growth factor (Mus musculus), P51859 S165A
increasing interaction: q3umu9-3, Q3UMU9-3 | q3umu9-1, Q3UMU9-1 | hdgr2_mouse Hdgfl2
